Where a chain is given by its changes, count along the chain named.

What all share (assay type): biochemical
A short description of series [1]: HTP-analysis of yeast culture supernatants, no challenge (MUGal hydrolysis). The settings on record: activity of the variant/activity of Rd2BB (SEQ ID NO: 10), yeast supernatant. The procedure, abridged:
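Activity read as 4-methylumbelliferyl α-D-galactopyranoside hydrolysis: fluorescence (355/448 nm) after sodium carbonate stop, following 30-180 min at 37° C with 2 mM MUGal stock at pH 4.6–4.8. Enzyme source is unchallenged culture supernatant of INVSc1 yeast expressing GLA variants, grown 66-84 h at 30° C.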

A short description of series [2]: HTP-analysis of supernatants pretreated with acid (MUGal hydrolysis). The settings on record: challenge at pH 4.2; activity of the variant/activity of Rd2BB (SEQ ID NO: 10); yeast supernatant. The procedure, abridged: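 MUGal hydrolysis was tracked by fluorescence (Ex 355 nm, Em 448 nm) after a 30-180 min reaction at 37° C. in pH 4.8 McIlvaine/citrate buffer, stopped with 1 M sodium carbonate. Beforehand, yeast (INVSc1) culture supernatants carrying GLA variants were held 1-3 h at 37° C. in acidic McIlvaine buffer, pH 3.3-4.3.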

A short description of series [3]: HTP-analysis of supernatants pretreated with base (MUGal hydrolysis). As to conditions: challenge at pH 7.6; activity of the variant/activity of Rd2BB (SEQ ID NO: 10); yeast supernatant. The procedure, abridged: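 GLA variants were secreted by transformed INVSc1 yeast grown 66-84 h at 30° C. Supernatants were exposed to neutral-to-basic buffers (pH 7.0-9.7) at 37° C for 1-18 h, then assayed with MUGal in acidic citrate/McIlvaine buffer, with fluorescence read after quenching.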

B1: 198 (protein)
chain: LDNGLARTPTMGWLHWERFMCNLDCQEEPDSCISEKLFMEMAELMVSEGWKDAGYEYLCIDDCWMAPQRDSEGRLQADPQRFPHGIRQLANYVHSKGLKLGIYADVGNKTCAGFPGSFGYYDIDAQTFADWGVDLLKFDGCYCDSLENLADGYKHMSLALNRTGRSIVYSCEWPLYMWPFQKPNYTEIRQYCNHWRNFADIDDSWASIKSILDWTSFNQERIVDVAGPGGWNDPDMLVIGNFGLSWNQQVTQMALWAIMAAPLFMSNDLRHISPQAKALLQDKDVIAINQDPLGKQGYQLRQGDNFEVWERPLSGLAWAVAMINRQEIGGPRSYTIAVASLGKGVACNPGCFITQLLPVKRKLGFYEWDSRLRSHINPTGTVLLQLENTMQMSKDLLL
modifications: Synthetic Polypeptide sequence of Variant No. 198 of mature Human GLA
B1: in series [1], the “Relative Activity of GLA Variants After No Challenge (NC)” value is listed as “++ (++ = 1.5 to 2.5 relative activity over Rd2BB (SEQ ID NO: 10))”. The “Relative Activity of GLA Variants After Challenge at pH 4.2” value (shortened to “Relative Activity … at pH 4.2”) in series [2] is “++ (++ = 1.5 to 2.5 relative activity over Rd2BB (SEQ ID NO: 10))”. Further, the “Relative Activity of GLA Variants After Challenge at pH 7.6” value (shortened to “Relative Activity … at pH 7.6”) in series [3] is listed as “+++ (+++ = >2.5 relative activity over Rd2BB (SEQ ID NO: 10))”.

B2: 202 (protein)
chain: B1 chain with C59A, G350A, D369T
modifications: Synthetic Polypeptide sequence of Variant No. 202 of mature Human GLA
Take B2: the “Relative Activity of GLA Variants After No Challenge (NC)” value in series [1] is listed as “+ (+ = 0.5 to 1.5 relative activity over Rd2BB (SEQ ID NO: 10))”. The “Relative Activity … at pH 4.2” value in series [2] is “+ (+ = 0.5 to 1.5 relative activity over Rd2BB (SEQ ID NO: 10))”. In addition, the “Relative Activity … at pH 7.6” value in series [3] was “+ (+ = 0.5 to 1.5 relative activity over Rd2BB (SEQ ID NO: 10))”.

B3: 210 (protein)
chain: B1 chain with G350A, F365L, E367N, D369T
modifications: Synthetic Polypeptide sequence of Variant No. 210 of mature Human GLA
In the case of B3, the “Relative Activity of GLA Variants After No Challenge (NC)” value in series [1] is “++ (++ = 1.5 to 2.5 relative activity over Rd2BB (SEQ ID NO: 10))”. Besides, the “Relative Activity … at pH 4.2” value in series [2] is “++ (++ = 1.5 to 2.5 relative activity over Rd2BB (SEQ ID NO: 10))”. Also, the “Relative Activity … at pH 7.6” value in series [3] is listed as “++ (++ = 1.5 to 2.5 relative activity over Rd2BB (SEQ ID NO: 10))”.

B4: 209 (protein)
chain: B1 chain with G350A, E367P
modifications: Synthetic Polypeptide sequence of Variant No. 209 of mature Human GLA
In the case of B4, the “Relative Activity of GLA Variants After No Challenge (NC)” value in series [1] is reported as “+ (+ = 0.5 to 1.5 relative activity over Rd2BB (SEQ ID NO: 10))”. The “Relative Activity … at pH 4.2” value in series [2] is recorded as “+ (+ = 0.5 to 1.5 relative activity over Rd2BB (SEQ ID NO: 10))”. For the same molecule, the “Relative Activity … at pH 7.6” value in series [3] is recorded as “+ (+ = 0.5 to 1.5 relative activity over Rd2BB (SEQ ID NO: 10))”.

B5: 201 (protein)
chain: B1 chain with C143T, G350A, D369T
modifications: Synthetic Polypeptide sequence of Variant No. 201 of mature Human GLA
Take B5: the “Relative Activity of GLA Variants After No Challenge (NC)” value in series [1] is reported as “+ (+ = 0.5 to 1.5 relative activity over Rd2BB (SEQ ID NO: 10))”. Also, in series [2], the “Relative Activity … at pH 4.2” value is reported as “+ (+ = 0.5 to 1.5 relative activity over Rd2BB (SEQ ID NO: 10))”. In addition, the “Relative Activity … at pH 7.6” value in series [3] is “+ (+ = 0.5 to 1.5 relative activity over Rd2BB (SEQ ID NO: 10))”.

B6: 205 (protein)
chain: B1 chain with G350A, E367D, K394L, D395K, L396D
modifications: Synthetic Polypeptide sequence of Variant No. 205
On to B6, for which the “Relative Activity of GLA Variants After No Challenge (NC)” value in series [1] is given as “++ (++ = 1.5 to 2.5 relative activity over Rd2BB (SEQ ID NO: 10))”. Moreover, the “Relative Activity … at pH 4.2” value in series [2] is reported as “++ (++ = 1.5 to 2.5 relative activity over Rd2BB (SEQ ID NO: 10))”. In addition, the “Relative Activity … at pH 7.6” value in series [3] was “++ (++ = 1.5 to 2.5 relative activity over Rd2BB (SEQ ID NO: 10))”.

B7: 207 (protein)
chain: B1 chain with G350A, E367N, D369T, R373K
modifications: Synthetic Polypeptide sequence of Variant No. 207 of mature Human GLA
Take B7: in series [1], the “Relative Activity of GLA Variants After No Challenge (NC)” value was “++ (++ = 1.5 to 2.5 relative activity over Rd2BB (SEQ ID NO: 10))”. Moreover, the “Relative Activity … at pH 4.2” value in series [2] is on record as “+++ (+++ = >2.5 relative activity over Rd2BB (SEQ ID NO: 10))”. Also, the “Relative Activity … at pH 7.6” value in series [3] is “+++ (+++ = >2.5 relative activity over Rd2BB (SEQ ID NO: 10))”.

B8: 212 (protein)
chain: B1 chain with G350A, F365L, E367N, D369T, R373K, I376V
modifications: Synthetic Polypeptide sequence of Variant No. 212 of mature Human GLA
As for B8, the “Relative Activity of GLA Variants After No Challenge (NC)” value in series [1] is recorded as “++ (++ = 1.5 to 2.5 relative activity over Rd2BB (SEQ ID NO: 10))”. The “Relative Activity … at pH 4.2” value in series [2] was “++ (++ = 1.5 to 2.5 relative activity over Rd2BB (SEQ ID NO: 10))”. Besides, in series [3], the “Relative Activity … at pH 7.6” value was “++ (++ = 1.5 to 2.5 relative activity over Rd2BB (SEQ ID NO: 10))”.

B9: 211 (protein)
chain: B1 chain with G350A, F365L, E367N, D369T, I376V
modifications: Synthetic Polypeptide sequence of Variant No. 211 of mature Human GLA
As for B9, the “Relative Activity of GLA Variants After No Challenge (NC)” value in series [1] is on record as “++ (++ = 1.5 to 2.5 relative activity over Rd2BB (SEQ ID NO: 10))”. In series [2], the “Relative Activity … at pH 4.2” value is given as “++ (++ = 1.5 to 2.5 relative activity over Rd2BB (SEQ ID NO: 10))”. For the same molecule, in series [3], the “Relative Activity … at pH 7.6” value is on record as “++ (++ = 1.5 to 2.5 relative activity over Rd2BB (SEQ ID NO: 10))”.

B10: 206 (protein)
chain: B1 chain with G350A, E367N, D369T, K394L, D395K, L396D
modifications: Synthetic Polypeptide sequence of Variant No. 206
Turning to B10, the “Relative Activity of GLA Variants After No Challenge (NC)” value in series [1] is “+++ (+++ = >2.5 relative activity over Rd2BB (SEQ ID NO: 10))”. Further, the “Relative Activity … at pH 4.2” value in series [2] is listed as “+++ (+++ = >2.5 relative activity over Rd2BB (SEQ ID NO: 10))”. Further, in series [3], the “Relative Activity … at pH 7.6” value was “+++ (+++ = >2.5 relative activity over Rd2BB (SEQ ID NO: 10))”.

B11: 204 (protein)
chain: B1 chain with G350A, E367D, D369T
modifications: Synthetic Polypeptide sequence of Variant No. 204 of mature Human GLA
With B11, the “Relative Activity of GLA Variants After No Challenge (NC)” value in series [1] is “+ (+ = 0.5 to 1.5 relative activity over Rd2BB (SEQ ID NO: 10))”. Besides, in series [2], the “Relative Activity … at pH 4.2” value is “+ (+ = 0.5 to 1.5 relative activity over Rd2BB (SEQ ID NO: 10))”. Also, the “Relative Activity … at pH 7.6” value in series [3] is listed as “+ (+ = 0.5 to 1.5 relative activity over Rd2BB (SEQ ID NO: 10))”.

B12: 199 (protein)
chain: B1 chain with D369S
modifications: Synthetic Polypeptide sequence of Variant No. 199 of mature Human GLA
For the molecule B12, the “Relative Activity of GLA Variants After No Challenge (NC)” value in series [1] is given as “++ (++ = 1.5 to 2.5 relative activity over Rd2BB (SEQ ID NO: 10))”. In addition, the “Relative Activity … at pH 4.2” value in series [2] is on record as “++ (++ = 1.5 to 2.5 relative activity over Rd2BB (SEQ ID NO: 10))”. In series [3], the “Relative Activity … at pH 7.6” value was “++ (++ = 1.5 to 2.5 relative activity over Rd2BB (SEQ ID NO: 10))”.

B13: 203 (protein)
chain: B1 chain with G350A, E367A
modifications: Synthetic Polypeptide sequence of Variant No. 203 of mature Human GLA
As for B13, the “Relative Activity of GLA Variants After No Challenge (NC)” value in series [1] is given as “++ (++ = 1.5 to 2.5 relative activity over Rd2BB (SEQ ID NO: 10))”. The “Relative Activity … at pH 4.2” value in series [2] is reported as “++ (++ = 1.5 to 2.5 relative activity over Rd2BB (SEQ ID NO: 10))”. Moreover, the “Relative Activity … at pH 7.6” value in series [3] is “+++ (+++ = >2.5 relative activity over Rd2BB (SEQ ID NO: 10))”.

B14: 200 (protein)
chain: B1 chain with C143A, G350A, D369T
modifications: Synthetic Polypeptide sequence of Variant No. 200 of mature Human GLA
In the case of B14, the “Relative Activity of GLA Variants After No Challenge (NC)” value in series [1] is “+ (+ = 0.5 to 1.5 relative activity over Rd2BB (SEQ ID NO: 10))”. In addition, in series [2], the “Relative Activity … at pH 4.2” value is listed as “+ (+ = 0.5 to 1.5 relative activity over Rd2BB (SEQ ID NO: 10))”. For the same molecule, the “Relative Activity … at pH 7.6” value in series [3] is listed as “+ (+ = 0.5 to 1.5 relative activity over Rd2BB (SEQ ID NO: 10))”.

B15: 208 (protein)
chain: B1 chain with G350A, E367N, D369T, R373K, I376V
modifications: Synthetic Polypeptide sequence of Variant No. 208 of mature Human GLA
With B15, the “Relative Activity of GLA Variants After No Challenge (NC)” value in series [1] was “++ (++ = 1.5 to 2.5 relative activity over Rd2BB (SEQ ID NO: 10))”. The “Relative Activity … at pH 4.2” value in series [2] was “+++ (+++ = >2.5 relative activity over Rd2BB (SEQ ID NO: 10))”. For the same molecule, in series [3], the “Relative Activity … at pH 7.6” value is “+++ (+++ = >2.5 relative activity over Rd2BB (SEQ ID NO: 10))”.
